Measured values: paper PMC9060471

Legend:
[1] = biological target: 6xHis-TLX ligand-binding domain, Q9Y466; test: BLI; 6xHis-TLX LBD on Ni-NTA biosensors, Octet Red 96; atrophin peptide in solution
[2] = biological target: 6xHis-TLX ligand-binding domain, Q9Y466; test: AlphaScreen or HTRF; ALPHA; atrophin peptide on donor beads, TLX ligand-binding domain on acceptor beads; competition with untagged atrophin peptide

Chain of 6xHis-TLX ligand-binding domain, Q9Y466 (Q9Y466 155-385): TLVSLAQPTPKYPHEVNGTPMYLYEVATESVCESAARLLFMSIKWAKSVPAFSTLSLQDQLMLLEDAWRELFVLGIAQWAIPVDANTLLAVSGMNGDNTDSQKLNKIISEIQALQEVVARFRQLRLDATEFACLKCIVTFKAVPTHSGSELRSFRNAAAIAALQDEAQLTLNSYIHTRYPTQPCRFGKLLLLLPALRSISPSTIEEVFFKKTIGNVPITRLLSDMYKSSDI

Binder: PPYADTPALRQLSEYARPHVAFSP (modifications not checked) [atrophin corepressor peptide (untagged)]
- Kd [1]: 14.2 µM
- EC50 [2]: 1.3 µM
